This note sets out measurements from paper PMC8141644, “Design of a Trispecific Checkpoint Inhibitor and Natural Killer Cell Engager Based on a 2 + 1 Common Light Chain Antibody Architecture” (Frontiers in Immunology, 2021).

Assay [1] has as its target T1, EGFR-ECD (UniProt P00533).
T1 construct: epidermal growth factor receptor (EGFR), extracellular domain (EGFR-ECD); With anti-human-Fc (AHC) sensors it was probably the His-tagged one; also called epidermal growth factor receptor extracellular domain
Nature of the assay: BLI; sterile filtered Expi293F cell culture supernatants of the light chain variants paired with the parental FEB4 heavy chain. The following applies: one partner purified. A general note: Biolayer interferometry detects binding as a change in optical thickness at a sensor tip.

The target of a further assay is T2, PD-L1-ECD (Homo sapiens (; durvalumab …, UniProt Q9NZQ7).
T2 construct: also called His-tagged PD-L1; source: bought: R&D systems (His-tagged PD-L1)
The assay is described as follows: BLI; affinity determination as previously described (54); purified antibodies (loaded onto AHC biosensors, as told for the anti-CD16a variants), antigen in solution; Octet RED96, 30 °C, 1000 rpm. As to conditions: both partners purified.

Assay [2] deals with T1, EGFR-ECD. The description is as above. As to conditions: both partners purified.

T2 sequence (Q9NZQ7 19-238): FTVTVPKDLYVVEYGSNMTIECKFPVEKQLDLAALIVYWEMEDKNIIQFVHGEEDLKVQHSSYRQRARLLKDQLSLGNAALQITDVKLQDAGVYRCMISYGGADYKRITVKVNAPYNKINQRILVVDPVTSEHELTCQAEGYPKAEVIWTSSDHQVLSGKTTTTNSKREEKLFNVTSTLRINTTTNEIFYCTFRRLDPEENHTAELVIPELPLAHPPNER

B1: FEB4 (antibody, V domains shown)
VH: AVTLDESGGGLQTPGGALSLVCKASGFTFSSHGMLWVRQAPGKGLEFVAGISTDGSSTSYGAPVKGRATISRDNGQSTVRLQLNNLRAEDTGTYYCAKDAYRCRNCAEDIDAWGHGTEVIVSS
VL: ALTQPSSVSANPGETVKITCSGGYSDDGSYYYYGWFQQKSPGSAPVTVIYDNTNRPSNIPSRFSGSTSGSTSTLTITGVRAEDEAVYYCGSIDTGYAGIFGAGTTLTVL
notes: IgG1 constant region (CH1, hinge, Fc); standard IgG1 format; also called parental FEB4 mAb; parental antibody; copies: 2 + 2
Turning to B1, the binding result with EGFR-ECD [1] was “binds”.

B2: ICI2 (antibody, V domains shown)
VH: AVTLDESGGGLQTPGGALSLVCKASGFDFSSYDMAWVRQAPGKGLEWVAGIKSNGPWTNYGAAVKGRATISRDNGQSTVRLQLNNLRAEDTAIYYCAKPGAGYVGWDAAGTIDSWGHGTEVIVSS
VL: ALTQPSSVSANPGETVKITCSGGGYDGSYYYGWYQQKSPGSAPVTVIYDNTNRPSNIPSRFSGSLSGSTNTLTITGVQAEDEAVYFCGGYDRSGGIFGGGTTLTVL
notes: VH of ICI2 (chicken-derived); IgG1 constant region (CH1, hinge, Fc) with the LALA mutation; as the light chain of m10 (dFEB1-VL common light chain); IgG1 LALA chimeric antibody; source: Expi293F, purified (Protein A chromatography); copies: 2 + 2
Usually Kd stands for the equilibrium constant for the complex coming apart. Molecule B2 had a Kd with PD-L1-ECD of 3 nM.

B3: dFEB4-1 (antibody, V domains shown)
VH: AVTLDESGGGLQTPGGALSLVCKASGFTFSSHGMLWVRQAPGKGLEFVAGISTDGSSTSYGAPVKGRATISRDNGQSTVRLQLNNLRAEDTGTYYCAKDAYRCRNCAEDIDAWGHGTEVIVSS
VL: ALTQPSSVSANPGETVKITCSGGGYDGSYYYGWYQQKSPGSAPVTVIYDNTNRPSNIPSRFSGSLSGSTNTLTITGVQAEDEAVYFCGGYDRSGGIFGGGTTLTVL
notes: as the heavy chain of m8 (parental FEB4 heavy chain); dFEB1-VL, chicken VL from the light chain shuffling; human lambda CL; IgG; also called parental FEB4 heavy chain with dFEB1-VL; source: Expi293F, co-transfected; sterile filtered culture supernatant, and purified (Protein A chromatography); copies: 2 + 2
On to B3, for which, in the assay with EGFR-ECD [2], binding was characterised by a dissociation constant (Kd) of 6.4 nM and the “fold improvement in KD against the parental FEB4” value is 5 fold.
